Results on four molecules are retold here after US20160002357A1 (Pfizer, published 2016).

As usually defined, the Kd is a measure of binding affinity in units of concentration.

Assay [1] deals with human P-cadherin expressed on the cell surface (human, UniProt P22223 108-829). As to the kind of experiment: cell-based or functional assay.
Assay [2] concerns the target T1, cynomolgus monkey P-cadherin ECD (cynomolgus monkey).
T1 construct: extracellular domain; also called cyno P-cadherin ECD; Cyno P-cadherin
As to the kind of experiment: SPR. For orientation: Surface plasmon resonance follows binding to a sensor surface in real time, without labels.

Sequence of human P-cadherin expressed on the cell surface (P22223 108-829): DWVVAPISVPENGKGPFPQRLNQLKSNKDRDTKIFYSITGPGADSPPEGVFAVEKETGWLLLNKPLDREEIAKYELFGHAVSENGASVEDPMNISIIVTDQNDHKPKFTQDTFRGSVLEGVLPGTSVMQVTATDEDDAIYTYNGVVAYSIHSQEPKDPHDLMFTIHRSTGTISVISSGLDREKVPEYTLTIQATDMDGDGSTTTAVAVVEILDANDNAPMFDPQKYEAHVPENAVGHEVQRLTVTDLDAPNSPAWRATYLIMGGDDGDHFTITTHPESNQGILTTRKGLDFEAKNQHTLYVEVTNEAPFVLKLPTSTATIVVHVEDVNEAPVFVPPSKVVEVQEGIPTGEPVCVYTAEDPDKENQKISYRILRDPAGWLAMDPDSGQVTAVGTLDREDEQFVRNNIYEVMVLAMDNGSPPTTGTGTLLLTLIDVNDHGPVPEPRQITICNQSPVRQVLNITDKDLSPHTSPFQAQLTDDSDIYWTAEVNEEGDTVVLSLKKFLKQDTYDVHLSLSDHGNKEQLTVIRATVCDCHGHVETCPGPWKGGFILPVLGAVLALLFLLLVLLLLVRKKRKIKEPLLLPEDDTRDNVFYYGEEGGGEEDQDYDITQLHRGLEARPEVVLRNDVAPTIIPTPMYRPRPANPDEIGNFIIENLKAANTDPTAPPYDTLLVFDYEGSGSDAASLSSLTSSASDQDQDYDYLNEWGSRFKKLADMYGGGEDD

B1: LP-DART #8 (bispecific antibody)
chain 1: QAVVTQEPSLTVSPGGTVTLTCRSSTGAVTTSNYANWVQQKPGQAPRGLIGGTNKRAPWTPARFSGSLLGGKAALTITGAQAEDEADYYCALWYSNLWVFGGGTKLTVLGGGGSGGGGEVQLVQSGAEVKKPGASVKVSCKASGYTFTSYGISWVRQAPGQGLEWMGWISAYNGNTNYAQKLQGRVTMTTDTSTSTAYMELRSLRSDDTAVYYCATIDTASAFDIWGQGTMVTVSSGGTGGGEPKSSDKTHTCPPCPAPEAAGAPSVFLFPPKPKDTLMISRTPEVTCVVVDVSHEDPEVKFNWYVDGVEVHNAKTKPREEQYNSTYRVVSVLTVLHQDWLNGKEYKCKVSNKALPAPIEKTISKAKGQPREPQVYTLPPCREEMTKNQVSLSCAVKGFYPSDIAVEWESNGQPENNYKTTPPVLDSDGSFFLVSKLTVDKSRWQQGNVFSCSVMHEALHNHYTQKSLSLSPG
chain 2: QSVLTQPPSVSAAPGQKVTISCSGSSSNIGNNYVSWYQQLPGTAPKLLIYDNNKRPSGIPDRFSGSKSGTSATLGITGLQTGDEADYYCGTWDSSLSAVVFGGGTKLTVLGGGSGGGGEVQLVESGGGLVQPGGSLRLSCAASGFTFNTYAMNWVRQAPGKGLEWVARIRSKYNNYATYYADSVKDRFTISRDDSKNSLYLQMNSLKTEDTAVYYCVRHGNFGNSYVSWFAYWGQGTLVTVSSGGTGGGEPKSSDKTHTCPPCPAPEAAGAPSVFLFPPKPKDTLMISRTPEVTCVVVDVSHEDPEVKFNWYVDGVEVHNAKTKPREEQYNSTYRVVSVLTVLHQDWLNGKEYKCKVSNKALPAPIEKTISKAKGQPREPQVCTLPPSREEMTKNQVSLWCLVKGFYPSDIAVEWESNGQPENNYKTTPPVLDSDGSFFLYSKLTVDKSRWQQGNVFSCSVMHEALHNHYTQKSLSLSPG
notes: also called P-cadherin LP-DART construct #8 (P-CAD 35, CD3-2)
As to B1, the “T cell Cytotoxicity” value in assay [1] came to 2.27 nM. For the same molecule, the Kd in assay [2] worked out at 104 nM.

B2: LP-DART #7 (bispecific antibody)
chain 1: QAVVTQEPSLTVSPGGTVTLTCRSSTGAVTTSNYANWVQQKPGQAPRGLIGGTNKRAPWTPARFSGSLLGGKAALTITGAQAEDEADYYCALWYSNLWVFGGGTKLTVLGGGGSGGGGEVQLVQSGAEVKKPGASVKVSCKASGYTFTSYGISWVRQAPGQGLEWMGWISAYNGNTNYAQKLQGRVTMTTDTSTSTAYMELRSLRSDDTAVYYCATIDTASAFDIWGQGTMVTVSSGEPKSSDKTHTCPPCPAPEAAGAPSVFLFPPKPKDTLMISRTPEVTCVVVDVSHEDPEVKFNWYVDGVEVHNAKTKPREEQYNSTYRVVSVLTVLHQDWLNGKEYKCKVSNKALPAPIEKTISKAKGQPREPQVYTLPPCREEMTKNQVSLSCAVKGFYPSDIAVEWESNGQPENNYKTTPPVLDSDGSFFLVSKLTVDKSRWQQGNVFSCSVMHEALHNHYTQKSLSLSPG
chain 2: QSVLTQPPSVSAAPGQKVTISCSGSSSNIGNNYVSWYQQLPGTAPKLLIYDNNKRPSGIPDRFSGSKSGTSATLGITGLQTGDEADYYCGTWDSSLSAVVFGGGTKLTVLGGGSGGGGEVQLVESGGGLVQPGGSLRLSCAASGFTFNTYAMNWVRQAPGKGLEWVARIRSKYNNYATYYADSVKDRFTISRDDSKNSLYLQMNSLKTEDTAVYYCVRHGNFGNSYVSWFAYWGQGTLVTVSSGEPKSSDKTHTCPPCPAPEAAGAPSVFLFPPKPKDTLMISRTPEVTCVVVDVSHEDPEVKFNWYVDGVEVHNAKTKPREEQYNSTYRVVSVLTVLHQDWLNGKEYKCKVSNKALPAPIEKTISKAKGQPREPQVCTLPPSREEMTKNQVSLWCLVKGFYPSDIAVEWESNGQPENNYKTTPPVLDSDGSFFLYSKLTVDKSRWQQGNVFSCSVMHEALHNHYTQKSLSLSPG
notes: also called P-cadherin LP-DART construct #7 (P-CAD 35, CD3-2)
As to B2, in assay [1], the “T cell Cytotoxicity” value was 2.85 nM. Binding in assay [2] was put at a Kd of 96.6 nM.

B3: LP-DART #5 (bispecific antibody)
chain 1: QAVVTQEPSLTVSPGGTVTLTCRSSTGAVTTSNYANWVQQKPGQAPRGLIGGTNKRAPWTPARFSGSLLGGKAALTITGAQAEDEADYYCALWYSNLWVFGGGTKLTVLGGGGSGGGGEVQLVQSGAEVKKPGASVKVSCKASGYTFTSYGISWVRQAPGQGLEWMGWISAYNGNTNYAQKLQGRVTMTTDTSTSTAYMELRSLRSDDTAVYYCATIDTASAFDIWGQGTMVTVSSGCPPCPAPEAAGAPSVFLFPPKPKDTLMISRTPEVTCVVVDVSHEDPEVKFNWYVDGVEVHNAKTKPREEQYNSTYRVVSVLTVLHQDWLNGKEYKCKVSNKALPAPIEKTISKAKGQPREPQVYTLPPCREEMTKNQVSLSCAVKGFYPSDIAVEWESNGQPENNYKTTPPVLDSDGSFFLVSKLTVDKSRWQQGNVFSCSVMHEALHNHYTQKSLSLSPG
chain 2: QSVLTQPPSVSAAPGQKVTISCSGSSSNIGNNYVSWYQQLPGTAPKLLIYDNNKRPSGIPDRFSGSKSGTSATLGITGLQTGDEADYYCGTWDSSLSAVVFGGGTKLTVLGGGSGGGGEVQLVESGGGLVQPGGSLRLSCAASGFTFNTYAMNWVRQAPGKGLEWVARIRSKYNNYATYYADSVKDRFTISRDDSKNSLYLQMNSLKTEDTAVYYCVRHGNFGNSYVSWFAYWGQGTLVTVSSGCPPCPAPEAAGAPSVFLFPPKPKDTLMISRTPEVTCVVVDVSHEDPEVKFNWYVDGVEVHNAKTKPREEQYNSTYRVVSVLTVLHQDWLNGKEYKCKVSNKALPAPIEKTISKAKGQPREPQVCTLPPSREEMTKNQVSLWCLVKGFYPSDIAVEWESNGQPENNYKTTPPVLDSDGSFFLYSKLTVDKSRWQQGNVFSCSVMHEALHNHYTQKSLSLSPG
notes: also called P-cadherin LP-DART construct #5 (P-CAD 35, CD3-2)
As to B3, the “T cell Cytotoxicity” value in assay [1] was 0.74 nM. For the same molecule, the Kd in assay [2] was 62.1 nM.

B4: LP-DART #6 (bispecific antibody)
chain 1: QAVVTQEPSLTVSPGGTVTLTCRSSTGAVTTSNYANWVQQKPGQAPRGLIGGTNKRAPWTPARFSGSLLGGKAALTITGAQAEDEADYYCALWYSNLWVFGGGTKLTVLGGGGSGGGGEVQLVQSGAEVKKPGASVKVSCKASGYTFTSYGISWVRQAPGQGLEWMGWISAYNGNTNYAQKLQGRVTMTTDTSTSTAYMELRSLRSDDTAVYYCATIDTASAFDIWGQGTMVTVSSGGTGGCPPCPAPEAAGAPSVFLFPPKPKDTLMISRTPEVTCVVVDVSHEDPEVKFNWYVDGVEVHNAKTKPREEQYNSTYRVVSVLTVLHQDWLNGKEYKCKVSNKALPAPIEKTISKAKGQPREPQVYTLPPCREEMTKNQVSLSCAVKGFYPSDIAVEWESNGQPENNYKTTPPVLDSDGSFFLVSKLTVDKSRWQQGNVFSCSVMHEALHNHYTQKSLSLSPG
chain 2: QSVLTQPPSVSAAPGQKVTISCSGSSSNIGNNYVSWYQQLPGTAPKLLIYDNNKRPSGIPDRFSGSKSGTSATLGITGLQTGDEADYYCGTWDSSLSAVVFGGGTKLTVLGGGSGGGGEVQLVESGGGLVQPGGSLRLSCAASGFTFNTYAMNWVRQAPGKGLEWVARIRSKYNNYATYYADSVKDRFTISRDDSKNSLYLQMNSLKTEDTAVYYCVRHGNFGNSYVSWFAYWGQGTLVTVSSGGTGGCPPCPAPEAAGAPSVFLFPPKPKDTLMISRTPEVTCVVVDVSHEDPEVKFNWYVDGVEVHNAKTKPREEQYNSTYRVVSVLTVLHQDWLNGKEYKCKVSNKALPAPIEKTISKAKGQPREPQVCTLPPSREEMTKNQVSLWCLVKGFYPSDIAVEWESNGQPENNYKTTPPVLDSDGSFFLYSKLTVDKSRWQQGNVFSCSVMHEALHNHYTQKSLSLSPG
notes: also called P-cadherin LP-DART construct #6 (P-CAD 35, CD3-2)
As for B4, the “T cell Cytotoxicity” value in assay [1] was 1.29 nM. The same molecule yielded a Kd in assay [2] of 86.6 nM.
